{"source": "paper PMC7105484", "about": "“Crystal structures of REF6 and its complex with DNA reveal diverse recognition mechanisms” (Cell Discovery, 2020)", "binders": {"B1": {"name": "NAC004 m5 (dsDNA)", "DNA 1": "CTTTCTCTGTTTTGTC", "DNA 2": "GGACAAAACAGAGAAA"}}, "conditions_in_all_cases": "protein: recombinant; tags: His6-MBP or GST, TEV-cleavable; label: FAM in MST; none in crystal and EMSA; 5' overhang 1 nt on both strands, 15 bp", "key": {"REF6 D1342A": {"biological_target": "T1, REF6 D1342A (Arabidopsis thaliana, UniProt Q9STM3 1223-1360, D1342A)", "T1 sequence": "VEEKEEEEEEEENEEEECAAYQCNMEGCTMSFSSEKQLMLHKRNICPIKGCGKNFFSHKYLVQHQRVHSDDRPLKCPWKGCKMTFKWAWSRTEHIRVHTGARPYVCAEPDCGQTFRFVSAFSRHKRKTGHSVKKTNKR", "experiment": "MST; MST: 20 mM HEPES pH 7.3, 150 mM NaCl, 0.2 mM TCEP, 0.5% CA-630, 25 C; EMSA: 30 uM protein, 10 uM dsDNA, 20 mM Tris pH 8.0, 100 mM NaCl, 2.5 mM MgCl2, 0.1% CA-630, 10% glycerol, 1 uM ZnSO4, 1 mM DTT, 4 C"}, "REF6 F1339A": {"biological_target": "T2, REF6 F1339A (Arabidopsis thaliana, UniProt Q9STM3 1223-1360, F1339A)", "T2 sequence": "T1 sequence with F117A, A120D", "experiment": "MST; MST: 20 mM HEPES pH 7.3, 150 mM NaCl, 0.2 mM TCEP, 0.5% CA-630, 25 C; EMSA: 30 uM protein, 10 uM dsDNA, 20 mM Tris pH 8.0, 100 mM NaCl, 2.5 mM MgCl2, 0.1% CA-630, 10% glycerol, 1 uM ZnSO4, 1 mM DTT, 4 C"}, "REF6 E1315A": {"biological_target": "T3, REF6 E1315A (Arabidopsis thaliana, UniProt Q9STM3 1223-1360, E1315A)", "T3 sequence": "T1 sequence with E93A, A120D", "experiment": "MST; MST: 20 mM HEPES pH 7.3, 150 mM NaCl, 0.2 mM TCEP, 0.5% CA-630, 25 C; EMSA: 30 uM protein, 10 uM dsDNA, 20 mM Tris pH 8.0, 100 mM NaCl, 2.5 mM MgCl2, 0.1% CA-630, 10% glycerol, 1 uM ZnSO4, 1 mM DTT, 4 C"}, "REF6 Y1282A": {"biological_target": "T4, REF6 Y1282A (Arabidopsis thaliana, UniProt Q9STM3 1223-1360, Y1282A)", "T4 sequence": "T1 sequence with Y60A, A120D", "experiment": "MST; MST: 20 mM HEPES pH 7.3, 150 mM NaCl, 0.2 mM TCEP, 0.5% CA-630, 25 C; EMSA: 30 uM protein, 10 uM dsDNA, 20 mM Tris pH 8.0, 100 mM NaCl, 2.5 mM MgCl2, 0.1% CA-630, 10% glycerol, 1 uM ZnSO4, 1 mM DTT, 4 C"}, "REF6 K1281A": {"biological_target": "T5, REF6 K1281A (Arabidopsis thaliana, UniProt Q9STM3 1223-1360, K1281A)", "T5 sequence": "T1 sequence with K59A, A120D", "experiment": "MST; MST: 20 mM HEPES pH 7.3, 150 mM NaCl, 0.2 mM TCEP, 0.5% CA-630, 25 C; EMSA: 30 uM protein, 10 uM dsDNA, 20 mM Tris pH 8.0, 100 mM NaCl, 2.5 mM MgCl2, 0.1% CA-630, 10% glycerol, 1 uM ZnSO4, 1 mM DTT, 4 C"}, "REF6 S1341W": {"biological_target": "T6, REF6 S1341W (Arabidopsis thaliana, UniProt Q9STM3 1223-1360, S1341W)", "T6 sequence": "T1 sequence with S119W, A120D", "experiment": "MST and EMSA; marked abrogation; MST: 20 mM HEPES pH 7.3, 150 mM NaCl, 0.2 mM TCEP, 0.5% CA-630, 25 C; EMSA: 30 uM protein, 10 uM dsDNA, 20 mM Tris pH 8.0, 100 mM NaCl, 2.5 mM MgCl2, 0.1% CA-630, 10% glycerol, 1 uM ZnSO4, 1 mM DTT, 4 C"}, "REF6 W1311A": {"biological_target": "T7, REF6 W1311A (Arabidopsis thaliana, UniProt Q9STM3 1223-1360, W1311A)", "T7 sequence": "T1 sequence with W89A, A120D", "experiment": "MST and EMSA; marked abrogation; MST: 20 mM HEPES pH 7.3, 150 mM NaCl, 0.2 mM TCEP, 0.5% CA-630, 25 C; EMSA: 30 uM protein, 10 uM dsDNA, 20 mM Tris pH 8.0, 100 mM NaCl, 2.5 mM MgCl2, 0.1% CA-630, 10% glycerol, 1 uM ZnSO4, 1 mM DTT, 4 C"}}, "note": "Positions count from the first letter of the chain named."}
{"binder": "B1", "values": [{"measurement": "Kd", "setting": "REF6 D1342A", "result": 1.3, "unit": "µM"}, {"measurement": "Kd", "setting": "REF6 F1339A", "result": 0.5, "unit": "µM"}, {"measurement": "Kd", "setting": "REF6 E1315A", "result": 3.7, "unit": "µM"}, {"measurement": "Kd", "setting": "REF6 Y1282A", "result": 1.1, "unit": "µM"}, {"measurement": "Kd", "setting": "REF6 K1281A", "result": 1.3, "unit": "µM"}, {"measurement": "binding result", "setting": "REF6 S1341W", "result": "no binding"}, {"measurement": "binding result", "setting": "REF6 W1311A", "result": "no binding"}]}
